Data from US20140271640A1, “FGF-10 Complexes” (Permeon Biologics, Inc., priority 2012, published 2014).
Changes are numbered by the printed parent chain. Names may count otherwise.

Experiments:
[1] = biological target: FGFR2b receptor (Homo sapiens, UniProt P21802); conditions: relative to wild-type FGF10; cited from earlier work
[2] = Microautoradiography analysis (MARG) of cellular distribution in liver and kidney; assay type: in vivo, mice
Method: To obtain specific cell-type uptake information in select organs, microautoradiography analysis was performed on selected organs collected at various time points. For microautoradiography analysis (MARG), animals were anesthetized and blood collected, as described above. Tissue samples are trimmed to be approximately 0.5 cm^2, placed into cryosectioning embedding media on a cryosectioning sample holder, and frozen in isopentane that is cooled with liquid nitrogen. Frozen samples were stored in liquid nitrogen until analysis by MARG. For analysis, tissues were cryosectioned at 5 μm under darkroom conditions, and collected onto glass slides that are pre-coated with photographic emulsion (Kodak NTB photographic emulsion). Slides were placed in sealed light-safe slide boxes and allowed to expose the photographic emulsion for 7 days before being developed, fixed and stained with hematoxylin and eosin. All slides were examined for cellular localization using light microscopy.

[3] = mouse, in vivo
[4] = Stability of Hisx6-FGF10-Myc following freeze/thaw cycles (A280, analytical SEC); assay type: physicochemical; conditions: after two (multiple) freeze/thaw cycles
Method: The stability of this cell penetrating domain of FGF10 was evaluated following multiple freeze/thaw cycles. To do this, protein concentration measurements and analytical size exclusion chromatography were carried out comparing protein which had undergone zero, one, or two freeze/thaw cycles. […] The study indicated about 75% stability of this protein after two freeze/thaw cycles.
Purified protein was subjected to the indicated number of freeze/thaw cycles (each freeze/thaw cycle consisted of snap-freezing the protein in liquid nitrogen, placing it at −80° C. for a minimum of two hours, and then thawing it on ice) and analyzed by size exclusion chromatography. After each thaw, the protein was subjected to 20,000×g centrifugation to remove any precipitation. The protein concentration of each sample was measured by A280, considering the extinction coefficient (24540) and molecular weight (19.57 kDa). In each case 40 μL of the protein was applied to a Superdex 75 10/300 GL column (GE Healthcare). The column running buffer was the same as the protein storage buffer (20 mM Hepes, pH 7.5, 0.5 M NaCl).

[5] = mouse, in vivo, iv
[6] = tested on: Hela cells; assay: Cell penetrating activity of FGF10 domain, anti-myc flow cytometry; assay type: cell-based; conditions: 1 uM, 20 minutes
Method: On the day prior to the assay, 10^6 Hela cells were plated in each well of a 6-well plate and incubated in the 37° C. CO2 incubator overnight. The cells were washed once with PBS and then were replenished with 1 mL of serum-free DEMEM (A) or media containing 1 uM of the FGF10 domain construct FGF10-myc (B, C, and D) and were incubated for 20 minutes in the 37° C. CO2 incubator. The cells were then washed three times with ice-cold PBS. For (C) and (D), cells were treated with 0.25% trypsin/EDTA and washed three times with PBS. The cells in (D) were fixed for 10 minutes with 1 mL 4% formaldehyde and permealized for 5 minutes with 0.2% saponin. Then 10 uL of 0.1 mg/mL FITC labeled chicken polyclonal anti-myc tag antibody (Abcam #1394) was added to all the cells and incubated at 4° C. in the dark for 2 hours. The cells were washed three times with ice cold PBS. Cells in (A) and (B) were detached with 1 mL 10 mM EDTA. Cells were analyzed using a BD Accuri™ C6 flow cytometer.

[7] = tested on: HepG2 (hepatoma), Hela cells, SW626 cells (ovarian); assay: Cell penetration of p16 fusion proteins, flow cytometry; assay type: cell-based; conditions: 2 uM, overnight
Method: On the day prior to the assay, HepG2 (hepatoma), Hela cells, and 10^6 SW626 cells (ovarian) were plated in each well of a 6-well plate and incubated in the 37° C. CO2 incubator. The cells were washed once with PBS and then were replenished with 2 mL of growth media containing 2 uM of p16, +36GFP-p16 or FGF10-p16 proteins and were incubated overnight in the 37° C. CO2 incubator. The cells were then washed once with PBS and detached with 0.25% trypsin/EDTA. The cells were fixed for 10 minutes with 1 mL 4% formaldehyde and permeabilized for 5 minutes with 0.5 mL 0.4% saponin. Then 2.5 uL of 1 mg/mL FITC labeled chicken polyclonal anti-myc tag antibody (Abcam #1394) was added to all the cells and incubated at 4° C. in the dark for 2 hours, except for cells treated with +36GFP-p16 (GFP itself was used for detection). The cells were washed twice with ice cold PBS and were analyzed using a BD Accuri™ C6 flow cytometer.

[8] = tested on: SKOV-3 ovarian cancer cells; assay: SKOV-3 cell viability MTS assay with endosome escape agent; assay type: cell-based, human; conditions: 1 uM protein, 4 hours, with endosome escape agent (strongest at 13.3 nM)
Method: SKOV-3 ovarian cancer cells were plated in a 96-well format and grown overnight. Cells were incubated with test articles: a) 1 uM of p16, b) 1 uM of +36GFP-p16, c) 1 uM of FGF10-p16 or d) no treatment in the presence of various concentrations of an endosome escape agent such as PFO (five 3× dilution starting from 40 nM; exemplary endosomal escape agents, such as PFO or PFO-like agents, are disclosed in WO2012/094653) for 4 hours in serum-free medium. One group of cells, called “untreated cells” received no test article treatment and no PFO treatment. After incubation, the media from all cell wells was aspirated and fresh complete medium was added for 3 hours. Cell viability was assessed using an MTS assay. Results are reported as number of viable cells as % relative to the untreated cells.
The CDK4/6 inhibitor PD-0332991 was used as positive control for inhibition of cell proliferation in the p16 deficient SKOV-3 cell line (FIG. 22).

[9] = biological target: FGFR-1b (Homo sapiens, UniProt P11362); conditions: cited from earlier work
FGFR-1b, sequence (P11362 22-822 isoform P11362-19 limits assumed): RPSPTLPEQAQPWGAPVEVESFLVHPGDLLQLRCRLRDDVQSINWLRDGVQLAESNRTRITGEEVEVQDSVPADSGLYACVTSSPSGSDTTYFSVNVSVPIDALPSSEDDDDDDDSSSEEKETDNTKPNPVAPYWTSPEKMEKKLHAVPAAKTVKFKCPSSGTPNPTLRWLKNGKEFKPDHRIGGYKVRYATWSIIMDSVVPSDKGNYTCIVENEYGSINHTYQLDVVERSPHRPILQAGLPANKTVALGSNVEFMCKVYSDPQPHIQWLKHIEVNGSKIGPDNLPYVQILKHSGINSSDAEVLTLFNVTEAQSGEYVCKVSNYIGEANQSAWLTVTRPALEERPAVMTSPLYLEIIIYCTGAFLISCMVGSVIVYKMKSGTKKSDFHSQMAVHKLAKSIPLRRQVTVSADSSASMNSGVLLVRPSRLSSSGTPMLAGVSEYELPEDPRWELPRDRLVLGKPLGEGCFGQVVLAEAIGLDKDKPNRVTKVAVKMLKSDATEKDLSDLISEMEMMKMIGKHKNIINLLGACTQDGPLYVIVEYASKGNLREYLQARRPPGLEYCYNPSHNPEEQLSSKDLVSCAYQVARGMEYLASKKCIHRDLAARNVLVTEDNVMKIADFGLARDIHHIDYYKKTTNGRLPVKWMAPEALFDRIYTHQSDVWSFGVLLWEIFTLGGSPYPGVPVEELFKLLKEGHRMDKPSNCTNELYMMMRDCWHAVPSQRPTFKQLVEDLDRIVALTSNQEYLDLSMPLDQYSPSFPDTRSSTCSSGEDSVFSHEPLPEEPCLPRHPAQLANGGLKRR

FGFR2b receptor, sequence (P21802 22-822 isoform P21802-3 limits assumed): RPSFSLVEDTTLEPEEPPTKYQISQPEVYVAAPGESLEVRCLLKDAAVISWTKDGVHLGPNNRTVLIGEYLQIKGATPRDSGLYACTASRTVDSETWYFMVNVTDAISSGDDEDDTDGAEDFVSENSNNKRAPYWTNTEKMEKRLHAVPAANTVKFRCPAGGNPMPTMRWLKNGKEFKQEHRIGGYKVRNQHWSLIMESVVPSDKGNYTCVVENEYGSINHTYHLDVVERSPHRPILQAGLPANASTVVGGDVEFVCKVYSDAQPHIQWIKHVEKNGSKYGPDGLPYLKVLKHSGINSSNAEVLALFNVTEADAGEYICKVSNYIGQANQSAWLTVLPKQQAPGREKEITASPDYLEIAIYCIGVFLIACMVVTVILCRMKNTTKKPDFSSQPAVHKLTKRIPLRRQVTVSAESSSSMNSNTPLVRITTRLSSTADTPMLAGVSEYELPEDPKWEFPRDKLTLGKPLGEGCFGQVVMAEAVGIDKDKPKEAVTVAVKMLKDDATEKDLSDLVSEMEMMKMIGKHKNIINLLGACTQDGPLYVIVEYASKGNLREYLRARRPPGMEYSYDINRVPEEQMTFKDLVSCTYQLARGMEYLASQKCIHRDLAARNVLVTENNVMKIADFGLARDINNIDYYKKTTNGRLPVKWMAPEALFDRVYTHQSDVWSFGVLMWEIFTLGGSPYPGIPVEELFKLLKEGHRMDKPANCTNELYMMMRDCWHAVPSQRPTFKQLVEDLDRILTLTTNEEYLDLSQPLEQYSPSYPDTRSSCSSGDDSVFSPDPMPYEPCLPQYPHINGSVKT

B1: FGF10 E158K/K195A: FGF-10 variant or fragment having two substitutions E158K/K195A (protein)
chain: GRHVRSYNHLQGDVRWRKLFSFTKYFLKIEKNGKVSGTKKENCPYSILEITSVEIGVVAVKAINSNYYLAMNKKGKLYGSKEFNNDCKLKERIEKNGYNTYASFNWQHNGRQMYVALNGKGAPRRGQKTRRANTSAHFLPMVVHS
For B1, the “decrease in binding to the FGFR2b receptor (factor / fold)” value [1] is given as “approximately 4”.

B2: FGF10 R78A: FGF-10 variant or fragment having one substitution R78A (protein)
chain: B1 chain with R15A, K95E, A132K
In the case of B2, the “decrease in binding to the FGFR2b receptor (factor / fold)” value [1] is listed as “approximately 4”.

B3: FGF10: Hisx6- and Myc-tagged domain of human FGF10 with the amino acid sequence of SEQ ID NO: 2 (protein, listed as Homo sapiens)
chain: B1 chain with K95E, A132K
modifications: His6 and Myc tags
In the case of B3, the “cellular distribution in kidney (MARG)” value ([2]; kidney) is reported as “uniformly distributed throughout the kidney”, the “cellular distribution in liver (MARG)” value ([2]; liver) is reported as “uniformly distributed throughout the liver tissue including in hepatocytes” and the “partitioning between plasma compartment and blood cell compartment” value [3] is reported as “favor the plasma compartment over the blood cell compartment”. The “plasma concentration compared with Tat-TK or +36GFP” value [3] was “higher concentrations in plasma 1 hour post-injection than Tat-TK or +36GFP”, the “stability after freeze/thaw cycles” value ([4]; listed as His6-FGF10-myc) was 75% and the “stability after freeze/thaw cycles” value ([4]; listed as Hisx6-FGF10-Myc) was “about 75%”. The “travel beyond the injection site” value [5] was “able to travel significantly beyond the area of the injection site”, the “cells with protein present on the cell membrane” value ([6]; no trypsin) was 98.8% and the “cells stained positive after trypsin treatment (internalized protein)” value ([6]; trypsin, fixed and permeabilized) was “almost all the cells stained positive”.

B4: p16: human p16Ink4A tumor suppressor protein without penetrating polypeptide (protein, listed as Homo sapiens)
chain: MEPAAGSSMEPSADWLATAAARGRVEEVRALLEAGALPNAPNSYGRRPIQVMMMGSARVAELLLLHGAEPNCADPATLTRPVHDAAREGFLDTLVVLHRAGARLDVRDAWGRLPVDLAEELGHRDVARYLRAAAGGTRGSNHARIDAAEGPSDIPD
With B4 the cell penetration [7] was “does not” and the “number of viable cells / cell proliferation” value [8] was “failed to block cell proliferation at levels higher than the background toxicity of an endosomal escape agent”.

B5: FGF10-p16: fusion protein of FGF10 domain (SEQ ID NO: 2), (G4S)2 linker and human p16 (protein)
chain: MEQKLISEEDLGSGRHVRSYNHLQGDVRWRKLFSFTKYFLKIEKNGKVSGTKKENCPYSILEITSVEIGVVAVKAINSNYYLAMNKKGKLYGSKEFNNDCKLKERIEENGYNTYASFNWQHNGRQMYVALNGKGAPRRGQKTRRKNTSAHFLPMVVHSGHGGGGSGGGGSMEPAAGSSMEPSADWLATAAARGRVEEVRALLEAGALPNAPNSYGRRPIQVMMMGSARVAELLLLHGAEPNCADPATLTRPVHDAAREGFLDTLVVLHRAGARLDVRDAWGRLPVDLAEELGHRDVARYLRAAAGGTRGSNHARIDAAEGPSDIPDGHGHHHHHH
For B5, the “treated cells stained positive” value ([7]; trypsin detached) was ~30% and the “number of viable cells / cell proliferation” value [8] was “significant reduction in the number of viable cells”.

B6: Fibroblast growth factor 10 (FGF-10): native FGF family member, ligand of FGFR-2b (protein, UniProt O15520 38-208, looked up)
Fibroblast growth factor 10: QALGQDMVSPEATNSSSSSFSSPSSAGRHVRSYNHLQGDVRWRKLFSFTKYFLKIEKNGKVSGTKKENCPYSILEITSVEIGVVAVKAINSNYYLAMNKKGKLYGSKEFNNDCKLKERIEENGYNTYASFNWQHNGRQMYVALNGKGAPRRGQKTRRKNTSAHFLPMVVHS
In the case of B6, the “binding affinity to FGFR-1b as % of binding affinity to FGFR-2b” value [9] is given as “about 10%”.
